Reference: patent publication US20120122765A1, “COMPOUNDS AND RELATED METHODS FOR MANIPULATING PARP-1-DEPENDENT CELL DEATH” (priority 2010, published 2012)
Substitutions are numbered along the chain they refer to. Numbers in names are those of the source. Where two headings read alike, the source gives them in different places.

B1: Pbm-AIF: full length mouse AIF mutant R588A;K589A;K592A (PAR binding motif mutant) (protein)
chain: MFRCGGLAGAFKQKLVPLVRTVYVQRPKQRNRLPGNLFQQWRVPLELQMARQMASSGSSGGKMDNSVLVLIVGLSTIGAGAYAYKTIKEDQKRYNERVMGLGLSPEEKQRRAIASATEGGSVPQIRAPSHVPFLLIGGGTAAFAAARSIRARDPGARVLIVSEDPELPYMRPPLSKELWFSDDPNVTKTLQFRQWNGKERSIYFQPPSFYVSAQDLPNIENGGVAVLTGKKVVHLDVRGNMVKLNDGSQITFEKCLIATGGTPRSLSAIDRAGAEVKSRTTLFRKIGDFRALEKISREVKSITVIGGGFLGSELACALGRKSQASGIEVIQLFPEKGNMGKILPQYLSNWTMEKVKREGVKVMPNAIVQSVGVSGGRLLIKLKDGRKVETDHIVTAVGLEPNVELAKTGGLEIDSDFGGFRVNAELQARSNIWVAGDAACFYDIKLGRRRVEHHDHAVVSGRLAGENMTGAAKPYWHQSMFWSDLGPDVGYEAIGLVDSSLPTVGVFAKATAQDNPKSATEQSGTGIRSESETESEASEITIPPSAPAVPQVPVEGEDYGKGVIFYLRDKVVVGIVLWNVFNRMPIAAAIIADGEQHEDLNEVAKLFNIHED
B2: WT-AIF: full length wild type mouse AIF (apoptosis-inducing factor), recombinant (protein)
chain: B1 chain with A588R, A589K, A592K
B3: His-WT-AIF: full-length recombinant His-tagged wild type mouse AIF (protein)
chain: B1 chain with A588R, A589K, A592K
modifications: left off: small tags and cut ends

How the values were obtained:
PAR [1] = experiment: PAR overlay assay of full length AIF and mutants; assay type: binding
Procedure: (§1) The following experiment was performed to confirm whether AIF in fact binds to PAR. Applicants performed 3 trials of an overlay assay on recombinant AIF with affinity-purified biotin-labeled PAR. Histone H3, which binds to PAR with high affinity, was included as a positive control and bovine serum albumin (“BSA”) was included as a negative control, as described by P. Chang et al. (Nat Cell Bio, 2005). FIG. 1B depicts three photos side by side for gels representative of all trials for these overlay assays. […] Thus, Applicants took the results of these two tests as confirming that AIF binds to PAR in vitro.
To further study these potential AIF PBMs, Applicants performed the following experiment to examine the effect of mutating AIFm amino acids 222-244, 441-463, and/or 567-592 to poly-alanine on the ability of AIF to bind PAR. FIG. 6 comprises black and white photographs of representative gels from an overlay assay of His-tagged WT-AIF, AIFm222-244, AIFm441-463, AIFm567-592, AIFΔ567-592 (i.e., a mutant lacking AAs 567-592), and AIF(K254A, R264A) (i.e., mutating K to A at 254 and R to A at 264) mutants with ^32P-labeled automodified PARP-1 (equivalent to 100 nM of PAR), purified ^32P-labeled PAR (100 nM), or purified ^32P-labeled PAR with either a 100-fold excess of DNA or cold PAR. […] The same can be assumed to corresponding sequences for other species, such as those identified in FIG. 4.
Additionally, to exclude the possibility that PAR polymer is binding to AIF through its DNA-binding domain, PAR polymer binding was assessed against the full length AIF DNA-binding mutant AIFK254A;R264A as described by H Cande et al. (Nat Struct Biol, 2002).
Finally, Human AIF (“AIFH”) is known to bind to DNA through a groove between the FAD-binding domain (“D1”) and C-terminal domain (“D3”). A mutant form of AIFH in which lysine 255 is substituted with alanine and arginine 265 is substituted with alanine (AIFK255A;R265A) completely lacks DNA binding. To investigate the possible contribution of the AIF DNA-binding domain to PAR binding, Applicants assessed PAR binding to AIFm mutated in the same way (AIFK254A;R264A). […] Thus, Applicants concluded that the AIF PAR-binding site is separable from its DNA-binding site, meaning that such binding could be inhibited by genetically modifying AIF without impacting the natural DNA binding capabilities of AIF or potentially by otherwise inhibiting the binding action of the PBMs.

PAR [2] = experiment: EMSA with 32P-labeled PAR; assay type: binding
Procedure: as §1
(§2) To further ascertain whether full length recombinant AIF-Tm produced above (henceforth named “Pbm-AIF”) binds PAR, Applicants performed three iterations of an EMSA assay for PAR binding with recombinant WT-AIF and Pbm-AIF, using histone H3 as a control. […] FIG. 9 comprises a black and white photograph of EMSA gels showing representative results for WT-AIF and Pbm-AIF using ^32P-labeled PAR.

PAR [3] = experiment: in vitro PAR-binding assay, twenty percent TBE-PAGE analysis
Procedure: To begin, 300 nM of purified WT-AIF or Pbm-AIF (i.e., AIF mutated in its PAR binding region) were incubated with ^32P-labeled PAR for 10 minutes at room temperature. Thereafter, samples were incubated with AIF antibody-linked protein G slurry for 1 hour. Samples were washed two times with PBS and boiled with 1× Laemmli sample buffer (obtained from BIO-RAD). Each soluble fraction was resolved in 20% TBE-PAGE. The gel was heat dried and developed using the Typhoon 9400 Imager.
as §2

PAR [4] = experiment: biotin-labeled PAR pull-down assay; assay type: binding; conditions: biotin-labeled PAR-conjugated NeutrAvidin beads
Excerpt: To confirm that Pbm-AIF fails to bind PAR, Applicants also performed four trials of biotin-labeled PAR pull-down assays on WT-AIF, Pbm-AIF, and histone H3. For this experiment, the pull-down assay used biotin-labeled PAR-conjugated NeutrAvidin beads. FIG. 10A comprises a composite black and white photograph depicting typical gels obtained in this pull-down assay.

isolated HeLa nuclei = experiment: nuclear shrinkage assay; assay type: biochemical; conditions: non-tagged proteins incubated with isolated HeLa nuclei
Procedure: Nuclei were obtained by purification from HeLa cells as described previously by A. Mandir et al. (J Neurosci, 2000). For the assay, purified nuclei were incubated with recombinant WT-AIF or Pbm-AIF (20 ng/ml) in the presence of ATP (2 mM), phosphocreatine (20 mM) and creatine kinase (50 μg/ml) for 90 minutes at 37° C. Nuclei were stained by DAPI and examined by fluorescence microscopy.
FIG. 11D comprises an array of color photographs showing the result of fluorescence microscopy for various cultures, as labeled in the figure, following DAPI staining. […] FIG. 11E is a chart reporting the result of a quantification of nuclei treated by WT-AIF, Pbm-AIF, and control (“CTL”), using Caspase 3 as a positive control.

[5] = test system: Hq mouse cortical neuronal cultures; experiment: AIF translocation to the nucleus in Hq cortical neurons; assay type: cell-based; conditions: 100 nM staurosporine, 24 hours
Procedure: Unless otherwise set forth herein, immunocytochemistry, immunohistochemistry and confocal microscopy as referenced in the examples entailed the following materials and procedures. […] AIF was visualized by 2 μg/ml mouse anti-Flag/Cyt AffiniPure Donkey Anti-Mouse IgG or rabbit anti-AIF/Cy3 AffiniPure Donkey Anti-Rabbit IgG. Immunohistochemistry was performed using the antibody against Flag. Immunofluorescence analysis thereafter was carried out by using a LSM510 confocal laser scanning microscope (obtained from Carl Zeiss Microlmaging) as described by H. Wang et al. (J. Neurosci, 2004).
Again, AIF translocation to the nucleus was monitored two hours after NMDA (500 μM, 5 minutes) treatment sufficient to initiate parthanatos in wild-type cells.

isolated mitochondria = experiment: AIF binding to isolated mitochondria; conditions: for binding to mitochondria versus concentration: 0.1 ng/μl to 120.5 ng/μl, 30 minutes, room temperature; for binding percentage to mitochondria over time: 2.5 ng/μl, mitochondria 200 μg/ml, after 5 minutes; for depletion from the supernatant by mitochondria: untreated mitochondria, absence of PAR
Procedure: One commonly accepted estimate is that approximately 20%-30% of AIF resides on the cytosolic side of the outer membrane of mitochondria, where it is poised to be rapidly released by PAR following PARP-1 activation. Applicants thus wanted to perform tests of AIF binding to mitochondria determine how readily purified WT-AIF and Pbm-AIF bind to mitochondria in a time- and concentration-dependent manner. Specifically, recombinant WT-AIF (2.5 ng/μl) and Pbm-AIF (2.5 ng/μl) were incubated with isolated mitochondria (200 μg/ml) for 1 minute, 5 minutes, 10 minutes, 15 minutes, 20 minutes or 30 minutes. […] The results of this portion of the experiment is provided by the graph of FIG. 15B.
To investigate the mechanism underlying mitochondrial AIF release following PARP-1 activation, Applicants incubated isolated mitochondria with purified non-tagged forms of AIF in the presence or absence of PAR and followed this by centrifugation to remove the mitochondria. Detection of AIF remaining in the supernatant was thereafter performed through immunoblot analysis.
The supernatant collected in the experiments of Example 16 were also analyzed for the presence of Tom20 and cyclochrome c.

PAR [6] = experiment: nitrocellulose saturation binding experiments
Excerpt: Applicants thereafter repeated the experiments using both wild type and mutant AIFm peptides spanning only amino acids 567-592 instead of full length AIFm and obtained results consistent with those using full-length AIF. […] The double amino acid mutant Dm (corresponding to only amino acids 567-592 of AIF-Dm so as to consist of SEQ. ID NO. 16) bound PAR. […] Thus, it is preferred in embodiments of the invention when conducting genetic manipulations to convert at least three target basic amino acids in the PBM to hydrophobic amino acids.
The PAR polymer binding properties of the mutant Pbm-AIF was then measured using full-length recombinant His-WT-AIF and His tagged Pbm-AIF (“His-Pbm-AIF”) via a series of nitrocellulose saturation binding experiments. Similar experiments were also conducted for the shorter peptides Dm and Tm in comparison to WT. FIG. 10B through FIG. 10D comprise charts reporting data from these various experiments. With regard to the shorter peptides, Applicants determined that the binding affinity constant (“Kd”) and maximum binding capacity (“Bmax”) of these AIF mimetic peptides and the results are reported in the chart of FIG. 10B. […] FIG. 10D comprises a Scatchard plot (95% confidence interval) of the results.

DNA = DNA retardation assay; assay type: binding; conditions: DNA (200 ng), 30 minutes
Procedure: AIF binding-mediated DNA mobility retardation was performed as described by H. Cande et al. (Nat Struct Biol, 2002). Recombinant His-tagged AIF (10 μg or 25 μg) was incubated with 1 kb DNA molecular weight marker (obtained from Fermentas) for 30 minutes at room temperature and loaded on 2.5% agarose gel prestained with ethidium bromide (1 μg/ml). Mobility shift was visualized under the Alpha Innotech UV illuminator.
Further, a DNA retardation assay of His-WT-AIF and His-Pbm-AIF was conducted by incubating both with DNA (200 ng) for 30 minutes, using BSA as a negative control.

Molecule	PAR mobility shift (PAR [2])	binding to 32P-PAR (PAR [3])	pull-down with biotin-labeled PAR (PAR [4])	chromatin condensation and nuclear shrinkage (isolated HeLa nuclei)	binding to mitochondria versus concentration (isolated mitochondria)	binding percentage to mitochondria over time (isolated mitochondria)	effect of PAR on association with mitochondria (isolated mitochondria; 5 nM PAR)	effect of PAR on association with mitochondria (isolated mitochondria; 50 nM PAR)	effect of PAR on association with mitochondria (isolated mitochondria; 100 nM PAR)	depletion from the supernatant by mitochondria (isolated mitochondria)	other results
B1	no effect on PAR mobility	failed to bind to ^32P-PAR	only a barely detectable amount	comparable levels of chromatin condensation and nuclear shrinkage	bound to the mitochondria in a concentration dependent manner	equivalent	failed to affect association	barely detectable effects	partially reduced mitochondrial binding	effectively depleted	PAR binding (PAR [1]; His-tagged proteins, purified PAR, normalized to WT-AIF, result in words): nearly abolished PAR-binding; reduced PAR binding (PAR [1]; radioactive signal normalized to WT-AIF): 90%; translocation to the nucleus after staurosporine [5]: translocated to the nucleus
B2	caused a PAR mobility shift in a concentration-dependent manner	bound to ^32P-PAR of different lengths	pulled down with biotin-labeled PAR	comparable levels of chromatin condensation and nuclear shrinkage	bound to the mitochondria in a concentration dependent manner	equivalent	failed to affect association	increased the concentration of WT-AIF in the supernatant	almost completely abolished	effectively depleted	effect of hundred fold excess of salmon sperm DNA on PAR binding (PAR [1]; overlay assay, 32P-labeled PAR): fails to disrupt; binding to biotin-labeled PAR (PAR [1]; overlay assay, affinity-purified biotin-labeled PAR): bound to biotin-labeled PAR in a concentration-dependent manner; effect of salmon sperm DNA on PAR binding (PAR [1]; salmon sperm DNA at 760 μM): failed to disrupt PAR binding; PAR mobility shift (PAR [2]; listed as AIFm): cause a shift of PAR polymer
B3											Bmax (PAR [6]; PAR binding, saturation binding): 200.83 pmol; Kd (PAR [6]; PAR binding, saturation binding, ligand binding program of Sigma plot, read-out: Kd): 100 nM; Bmax (PAR [6]; specific binding (His-Pbm-AIF values subtracted), Scatchard analysis): 116.208 pmol; Kd (PAR [6]; specific binding (His-Pbm-AIF values subtracted), Scatchard analysis, read-out: calculated Kd): 66.3 nM; DNA-binding properties (DNA): comparable
